Experimental findings from PMC12046049 (2025) are described below.

For test [1], the target named is HSPB7ACD (α-crystallin domain, residues 78-162 of isoform 2) (human, UniProt Q9UBY9-2 78-162).
For test [2], the target named is T1, HSPB5ACD (α-crystallin domain of HSPB5) (human).
T1 chain: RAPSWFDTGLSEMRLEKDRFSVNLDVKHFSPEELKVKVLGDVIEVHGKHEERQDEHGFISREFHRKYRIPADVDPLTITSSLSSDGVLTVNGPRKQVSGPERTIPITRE

Test [3] has as its target HSPB1ACD (α-crystallin domain of HSPB1) (human).

HSPB1ACD (α-crystallin domain of HSPB1) (human), sequence (chain, as listed by the source): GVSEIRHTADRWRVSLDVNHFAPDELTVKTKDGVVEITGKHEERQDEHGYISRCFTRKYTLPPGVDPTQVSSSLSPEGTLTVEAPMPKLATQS

B1: HSPB5 C-terminal peptide (cognate peptide of HSPB5ACD) (peptide)
chain: ERTIPITRE
modifications: Limits are not printed. 156-164, containing the IPI motif, is taken by convention from the peptide in the HSPB5 ACD-peptide structure PDB 4M5S; check residues come from the IPI motif, not numbered in the text. Terminal chemistry not stated.
In the case of B1, the dissociation constant Kd (as a rule, the equilibrium constant for the complex coming apart) was 71 µM in test [1] and 23 µM in test [2].

In turn, ITIPVTFE [HSPB1 C-terminal peptide (cognate peptide of HSPB1ACD)] showed an equilibrium dissociation constant (Kd) in test [1] of 109 µM.

For TFRTEIKI [HSPB7 C-terminal peptide (residues 168-175, TFRTEIKI)], the dissociation constant (Kd) in test [1] is 378 µM; in test [2] it was 186 µM; in test [3], 559 µM.
